According to US20120220538A1 (UNIVERSITY OF LOUISVILLE RESEARCH FOUNDATION, published 2012):

B1: soybean-derived lunasin (lunasin purified from soybean white flake) (peptide)
peptide: SKWQHQQDSCRKQLQGVNLTPCEKHIMEKIQGRGDDDDDDDDDN
notes: Purified from soybean white flake and released from the lunasin-containing complex with a reducing agent; also called purified lunasin; highly purified soybean-derived lunasin
B2: synthetic lunasin (peptide)
peptide: SKWQHQQDSCRKQLQGVNLTPCEKHIMEKIQGRGDDDDDDDDD
notes: Made by peptide synthesis; It is the 43-residue published form of lunasin; also called synthetic lunasin created by peptide synthesis

Key:
human histone 3.3 = human histone 3.3 (human, UniProt P84243 2-136); experiment: in vitro histone binding assay, histone coated on plate, anti-lunasin polyclonal antibody + HRP secondary, A450
human histone 4 = human histone 4 (human, UniProt P62805 2-103); experiment: as above

| Binder | binding result (human histone 3.3) | binding result (human histone 4) |
| --- | --- | --- |
| B1 | binds | binds |
| B2 | binds | binds |
